Common to all, as to format: biochemical
For series [1], the system named is O=C(c1ccc(Cl)cc1)c1ccccn1. Briefly: Kinetic analysis, reduction of CPMK by mutant M2. The following applies: other: substrate CPMK, coenzyme NADPH, pH 7.0, 30° C. As to the method: In an embodiment of the present disclosure, the mutant includes the substitution of tryptophan for serine at position 196 of the alcohol dehydrogenase with the amino acid sequence shown in SEQ ID No. 2, which is named M2.
(§1) Adopting a total reaction system of 200 μL, including: 1.0 mM NADPH, 1.0 mM substrate CPMK and sodium phosphate buffer (PBS, 100 mM, pH 7.0), fully and evenly mixing, maintaining at 30° C. for 2 min, adding an appropriate amount of enzyme solution, and detecting the change in light absorption at 340 nm.
(§2) The enzyme activity was calculated by the following formula: […]
(§3) in the formula, EW is the change in absorbance at 340 nm in 1 min; V is the volume of a reaction solution in mL; 6220 is the molar extinction coefficient of NADPH in L/(mol·cm); and 1 is the optical path distance in cm. One activity unit (U) corresponds to the amount of enzyme required to catalyze the oxidation of 1 μmol NADPH per minute under the above conditions.
(§4) A column used for purification was a nickel affinity column HisTrap FF crude, and purification was achieved through affinity chromatography using a histidine tag on recombinant protein. The nickel column was equilibrated with a solution A first, a crude enzyme solution was loaded, a penetrating peak was further eluted off using the solution A, and after equilibrium, a solution B (20 mM sodium phosphate, 500 mM NaCl, and 1000 mM imidazole, pH 7.4) was used for gradient elution to elute off the recombinant protein bound to the nickel column, so as to obtain the recombinant alcohol dehydrogenase mutant. The purified protein was subjected to activity measurement (CPMK as substrate, and NADPH as coenzyme) and SDS-PAGE analysis. […] The purified alcohol dehydrogenase protein was then replaced into a Tris-HCl (100 mM, pH 7.0) buffer using a Hi Trap Desalting column (GE Healthcare).
(§5) The activity of KpADH at different substrate concentrations and coenzyme concentrations was determined, and a double reciprocal curve was made based on the reciprocal of activity and substrate concentration to calculate kinetic parameters.

In series [2] the test system is O=C(c1ccc(Cl)cc1)c1ccccn1. As to the kind of experiment: Kinetic analysis, reduction of CPMK by mutant M1. To be noted: other: substrate CPMK, coenzyme NADPH, pH 7.0, 30° C. As to the method:
In an embodiment of the present disclosure, the mutant includes the substitution of valine for serine at position 196 of the alcohol dehydrogenase with the amino acid sequence shown in SEQ ID No. 2, which is named M1.
as §1, §2, §3, §4, §5

Series [3] has as its system O=C(c1ccc(Cl)cc1)c1ccccn1. As to the kind of experiment: Kinetic analysis, reduction of CPMK by mutant M5. The following applies: other: substrate CPMK, coenzyme NADPH, pH 7.0, 30° C. As to the method:
In an embodiment of the present disclosure, the mutant includes the substitution of glycine for serine at position 196 of the alcohol dehydrogenase with the amino acid sequence shown in SEQ ID No. 2, and the substitution of valine for phenylalanine at position 161, which is named M5.
as §1, §2, §3, §4, §5

Series [4] relates to O=C(c1ccc(Cl)cc1)c1ccccn1. Briefly: Kinetic analysis, reduction of CPMK by mutant M3. To be noted: other: substrate CPMK, coenzyme NADPH, pH 7.0, 30° C. As to the method: In an embodiment of the present disclosure, the mutant includes the substitution of proline for serine at position 196 of the alcohol dehydrogenase with the amino acid sequence shown in SEQ ID No. 2, which is named M3.
as §1, §2, §3, §4, §5

Series [5] concerns O=C(c1ccc(Cl)cc1)c1ccccn1. Briefly: Kinetic analysis, reduction of CPMK by mutant M4. To be noted: other: substrate CPMK, coenzyme NADPH, pH 7.0, 30° C. As to the method: In an embodiment of the present disclosure, the mutant includes the substitution of glycine for serine at position 196 of the alcohol dehydrogenase with the amino acid sequence shown in SEQ ID No. 2, which is named M4.
as §1, §2, §3, §4, §5

In series [6] the test system is O=C(c1ccc(Cl)cc1)c1ccccn1. As to the kind of experiment: Kinetic analysis, reduction of CPMK by wild type KpADH. To be noted: other: substrate CPMK, coenzyme NADPH, pH 7.0, 30° C. As to the method:
as §1, §2, §3, §4, §5

Series [7] addresses alcohol dehydrogenase KpADH, wild type, SEQ ID No. 2 (Vanderwaltozyma polyspora, UniProt A7TM80). Described as above. The following applies: substrate CPMK, coenzyme NADPH, pH 7.0, 30° C. As to the method:
as §1, §2, §3, §4, §5

We go through 7 compounds from patent publication US10822593B2, “Alcohol dehydrogenase mutant and application thereof in synthesis of diaryl chiral alcohols” (priority 2018, dated 2020).

Broadly, the Km is the concentration of substrate that gives half-maximal velocity. By Vmax is commonly meant the top rate of the reaction or transport when substrate is in excess. As a reminder, the kcat is the maximal rate divided by the concentration of active sites. A word on the kcat/Km: it is the second-order rate constant that governs catalysis at low substrate concentration.

Turning to “alcohol dehydrogenase KpADH (SEQ ID No. 2) mutant M2, S196W (Vanderwaltozyma polyspora DSM 70294; S196W)”, in series [1], the Michaelis constant (Km) is 702 µM, the Vmax came out at 21.3 µmol/min/mg, the turnover number (kcat) turned out to be 14.2 s⁻¹ and the kcat/Km is 20300 M⁻¹ s⁻¹.
Turning to “alcohol dehydrogenase KpADH (SEQ ID No. 2) mutant M1, S196V (Vanderwaltozyma polyspora DSM 70294; S196V)”, in series [2], the Km is 720 µM, the Vmax turned out to be 21.3 µmol/min/mg, the kcat was determined as 17 s⁻¹ and the kcat/Km amounted to 23600 M⁻¹ s⁻¹.
With “alcohol dehydrogenase KpADH (SEQ ID No. 2) mutant M5, S196G/F161V (Vanderwaltozyma polyspora DSM 70294; F161V/S196G)”, in series [3], the Km was 690 µM, the Vmax was found to be 17.7 µmol/min/mg, the kcat was 11.8 s⁻¹ and the catalytic efficiency (kcat/Km) was found to be 17100 M⁻¹ s⁻¹.
As to “alcohol dehydrogenase KpADH (SEQ ID No. 2) mutant M3, S196P (Vanderwaltozyma polyspora DSM 70294; S196P)”, in series [4], the Km came to 604 µM, the Vmax is 22.3 µmol/min/mg, the turnover number (kcat) was 14.8 s⁻¹ and the kcat/Km was determined as 24600 M⁻¹ s⁻¹.
As to “alcohol dehydrogenase KpADH (SEQ ID No. 2) mutant M4, S196G (Vanderwaltozyma polyspora DSM 70294; S196G)”, in series [5], the Km was 730 µM, the Vmax amounted to 26.5 µmol/min/mg, the kcat is 17.6 s⁻¹ and the kcat/Km turned out to be 24100 M⁻¹ s⁻¹.
With “alcohol dehydrogenase KpADH, wild type, SEQ ID No. 2 (Vanderwaltozyma polyspora DSM 70294)”, in series [6], the Km came to 410 µM, the Vmax turned out to be 17.9 µmol/min/mg, the kcat turned out to be 11.8 s⁻¹ and the specificity constant (kcat/Km) is 28900 M⁻¹ s⁻¹.
For `O=C(c1ccc(Cl)cc1)c1ccccn1` [CPMK, (4-chlorophenyl)-(pyridin-2-yl)-methanone], the Kcat/Km in series [7] amounted to 28900 M⁻¹ s⁻¹.
